Data reported in patent publication US20110286916A1 (published 2011).

Tests used:
[1] = molecular target: T1, human full-length Notch3 with C-terminal FLAG tag, stably expressed on 293 FlpIn (TREx) cells (human, UniProt Q9UM47 40-2321); test: FACS, phage scFv
T1 construct: whole, on cells; made by the same strategy as the Notch1 line; also called 293-N3; hN3

[2] = molecular target: T2, human full-length Notch1 with C-terminal FLAG tag, stably expressed on 293 FlpIn (TREx) cells (human, UniProt P46531 19-2555); test: FACS, phage scFv
T2 construct: tetracycline/doxycycline-induced expression from pcDNA5/FRT/TO-HN1+FLAG; also called hN1; 293_N1

B1: N1wc16 (scFv, V domains shown)
VH: QVQLQQSGAEVKTPGASVKVSCKASGYTFTDNYIHWVRQAPGQGLEWMGRINVNSGATNYARKFQGRVTMTGDTSISTAYMDLSRLKSDDTAVYYCARDFRYSGVDVWGQGTMVTVSS
VL: QSVLTQPPSVSVAPGQTATLSCVGDAIERKSVHWYQQRPGQAPVLVVHDDSDRPSGIPDRISGSNSGNTATLTITRVEVGDEADYFCQVWDTSSGHDAVVFGGGTKLTVL
notes: phage scFv
binding result [1]: binds
binding result [2]: binds

B2: N1wc21 (scFv, V domains shown)
VH: QVQLVESGAEVKKPGASVKVSCKASGYTFTDHYIQWLRQAPGQGLEWMGWMNPKSGGTNYAQKFQGRVTLTRDTSISTAYMDLSGLRFDDTAIYFCASDPTIPPSPNYDYYYYAMDLWGKGTLVTVSS
VL: SYELTQPPSVSVSPGQTARITCSGDALPDKYVHWYQQKSGQAPVLVLFDDSKRPSGIPERFSGSSSGTVATLIISGAQVEDEGDFFCYSTDSSGNERVFGGGTKLTVL
notes: phage scFv
binding result [1]: binds
binding result [2]: binds

B3: N1wc24 (scFv, V domains shown)
VH: EVQLVESGPGLVKPSETLSLTCTVSGGSMTSNFWSWIRQTPGKGLEWIGYVLYTGSTNSNPSLKSRVTMSVDTSKNQVSLTLSSVTAADTAIYYCARGNGWYLPWGRGTMVTVSS
VL: QSVLTQPPSVSGAPRQRVTISCSGSSSNIENNIVNWYQQLPGEAPKLLIYYDNLLPSGVSDRFSGSKSGTSASLAISGLQSGDEADYYCAAWDDSLKAVVFGGGTKLTVL
notes: phage scFv
binding result [1]: binds
binding result [2]: binds

B4: N1wc177 (scFv, V domains shown)
VH: QVQLVQSGAEVKEPGSSVRVSCKSSGGTFSNYAISWVRQAPGQGLEWMGGIIPGFGKTNYAQKFQGRVTITADASTSTTYMELRTLRSGDTAVYYCARDRGPDIGVAHFDSWGKGTMVTVSS
VL: QAVLTQPSSASGTPGQRVIISCSGSSSNIGKYIVNWYQQLPGAAPKLLIYTYNERPSGVPARFSGSTSGTSASLAITGLQSEDEADYYCASWDDSLNVVVFGGGTKLTVL
notes: phage scFv
binding result [1]: binds
binding result [2]: binds

B5: N1wc289 (scFv, V domains shown)
VH: QVQLVQSGAEVKKPGTTVKISCKVSGYKFTDYYIHWVRQAPGKGLEWMGFVDPTDDETRFAEKFQGRLTMTADTSRDTASMELSSLRSEDTAVYYCIRGIAALADWGRGTMVTVSS
VL: QAVLTQPSSLSASPGASASLTCTLRSDINLETSRIYWFQQKPGSPPRYLLRYQSDSDNNLDSGVPSRFSGSKDASANAGILLISGVQSEDEADYHCMIWHSGGSVFGGGTKVTVL
notes: phage scFv
binding result [1]: binds
binding result [2]: binds

B6: N1wc127 (scFv, V domains shown)
VH: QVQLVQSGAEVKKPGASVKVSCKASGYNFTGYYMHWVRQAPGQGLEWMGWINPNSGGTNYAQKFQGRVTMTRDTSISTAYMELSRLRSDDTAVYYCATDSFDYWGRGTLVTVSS
VL: SYVLTQPPSTSGAPGQRVTISCSGSSSNIGSNGVNWYHHLPGTAPKLLIYSNFHRPSGVPDRFSGSKSGTSATLAISGLQSEDEADYYCAAWDDSLNDYVFGVGTKVTVL
notes: phage scFv
binding result [1]: binds
binding result [2]: binds

B7: N1wc150 (scFv, V domains shown)
VH: EVQLVQSGAEVKKPGASVKVSCKASGYNFTGYYMHWVRQAPGQGLEWMGWINPNSGGTNYAQKFQGRVTMTRDTSISTAYMELSRLRSDDTAVYYCATDSFDYWGRGTMVTVSS
VL: SYELTQPPSASGTPGQRVTISCSGSGSNIGKNTVNWYQQLPGAAPKLLIYSNNERPSGVPGRFSGSKSGTSASLAISGLQSEDETDYYCAAWDDSLNDMVFGGGTKVTVL
notes: phage scFv
binding result [1]: binds
binding result [2]: binds

B8: N1wc239 (scFv, V domains shown)
VH: EVQLVESGAEVKKPGASVKVSCKASGYNFTGYYIHWVRQAPGQGLEWMGWINPNSGGTNYAQKFQGRVIMTRDTSISTAYMELSRLRSDDTAVYYCATDSFDYWGKGTMVTVSS
VL: QSVLTQPPSASGTPGQRVAISCSGSHSNIRSNDVYWYQQFPGTAPKLLIYSNDQRPSGVSDRFAGSKSGTSASLAISGLRSEDESDYYCATWDDSLSGVVFGGGTKLTVL
notes: phage scFv
binding result [1]: binds
binding result [2]: binds

B9: N1wc295 (scFv, V domains shown)
VH: QVQLQQSGAEVKKPGASVKVSCKASGYNFTGYYMHWVRQAPGQGLEWMGWINPNSGGTNYAQNFQGRVTMTRDTSISTAYMELSRLRSDDTAVYYCATDSFDYWGRGTMVTVSS
VL: QSVLTQPPSASGTPGQRVTISCSGNRSNIGSNTVNWYQQLPGTAPKLLIYSNDQRPSGVPDRFSGSKSGTSASLTISGLQSDDEADFYCAAWDDNLNGYVFGSGTKVTVL
notes: phage scFv
binding result [1]: binds
binding result [2]: binds

B10: N1wc125 (scFv, V domains shown)
VH: QVQLQQSGAEVKKPGAPLKVSCKTSGFTFTGYYIHWVRQAPGQGLEWMGRVDPYNGATNFAQKFQGRVTMTTDTSTSTTYMELMSLRSDDTAVYYCARGWELDSWGQGTLVTVSS
VL: QSVLTQPASVSGSPGQSITISCTGTSSDVGGYNYVSWYQQHPGKAPKLMIYEGSKRPSGVSNRFSGSKSGNTASLTISGLQAEDEADYYCSSYTTRSTRVFGGGTKLTVL
notes: phage scFv
binding result [1]: binds
binding result [2]: binds

B11: N1wc281 (scFv, V domains shown)
VH: QVQLQESGAEVKKPGASVKVSCRASGYTFTTNSLHWVRQAPGQGLDWMGVINPRDGSATVAQKFQGRITMTSDTSTSTVFLALSSLTSDDTGVYFCARDGLDYRDTSRILAPTDVWGRGTLVTVSS
VL: QSVLTQPPSVSVSPGQTASITCSGDKLGDKYTFWYQQKPGQSPVLIIYQDTKRPSGIPERFSGSNSGNTATLTISGTQAMDEADYYCQAWDSNTDHVIFGGGTKLTVL
notes: phage scFv
binding result [1]: binds
binding result [2]: binds

B12: N1wc82 (scFv, V domains shown)
VH: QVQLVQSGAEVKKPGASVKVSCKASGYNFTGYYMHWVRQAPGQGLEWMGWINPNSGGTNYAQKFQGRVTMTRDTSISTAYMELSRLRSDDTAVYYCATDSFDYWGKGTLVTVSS
VL: QSVLTQPPSVSATPGQKVTISCSGSNSNIGNNYVSWYQQLPGTAPKLLIYDSDQRPAGIPDRFSGSKLGTSATLGITGLQTGDEADYYCATWDAGLSVLIFGGGTKLTVL
notes: phage scFv
binding result [1]: binds
binding result [2]: binds

B13: N1wc170 (scFv, V domains shown)
VH: QVQLQQSGPEVKKPGASVKISCKTSGYTFSSFGISWVRQAPGQGPEWMGWVSPYSGDTDYAQKFRGRVTMTIDSSTDTAYVEMRSLRSDDTAIYYCANSPISDGSSSSYDNWGKGTLVTVSS
VL: SYELTQPPSVSVAPGQTARITCGGENIGTKSVHWYQQKSGQAPVLVIYEDKKRPSGIPDRFSGSSSGTMATLTITGAQVDDEADYYCYSADNTGDQRMFGGGTKLTVL
notes: phage scFv
binding result [1]: binds
binding result [2]: binds

B14: N1wc113 (scFv, V domains shown)
VH: QMQLVQSGAEVKRPGASVNLSCKASGYSFSRYYIHWVRQAPGQGLELMGRINPGGGTTTYAQKFQGRVTLSRDTSTNTIFMELNGLTSEDTAMYYCARSNYDILAGYGPDAFDFWGQGTMVTVSS
VL: QAVLTQPSSVSGAPGQRVTISCTGSSSNIGAGNDVHWYRQFPGTAPKLLIYGNNKRPSGVSDRFSGSKSGTSASLAITGLQVEDEADYYCQSYDSSLGGSDVFGGGTKLTVL
notes: phage scFv
binding result [1]: binds
binding result [2]: binds

B15: N1wc241 (scFv, V domains shown)
VH: EVQLVQSGAEVKKPGASVKVSCKTSGYTFNDYYHHWVRQAPGQGLEWMGWINPHTGVANYAEKYKGRLAMTGDTSISTIYMDLSSLISDDTAIYFCARERSEWRNTVSSPSEYFHHWGKGTLVTVSS
VL: QSVLTQPPSASGTPGQRVTISCSGSFSNIGSNNVYWYQQLAGTAPKLLIYRNNERPSGVPDRFSGSKSGTSASLAISGLRSEDEADYYCAVRDDSLSGHYVFGSGTKVTVL
notes: phage scFv
binding result [1]: binds
binding result [2]: binds

B16: N1wc182 (scFv, V domains shown)
VH: QVQLVQSGPEVKKPGTSVKVSCKASGFTFTSSAVQWVRQARGQRLEWIGWIVVGSGNTNYAQKFQERVTITRDMSTSTAYMELSSLRSEDTAVYYCVADTVYWGQGTLVTVSS
VL: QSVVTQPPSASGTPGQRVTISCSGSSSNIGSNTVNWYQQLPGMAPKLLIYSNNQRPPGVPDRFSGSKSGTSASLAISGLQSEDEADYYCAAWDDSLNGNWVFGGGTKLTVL
notes: phage scFv
binding result [1]: binds
binding result [2]: binds

B17: N1wc129 (scFv, V domains shown)
VH: QVQLVQSGAEVKKPGASVKVSCKASGYNFTGYYLHWVRQAPGQGLEWMGWIDPNSGGTDYAQQFQGRVTVTRDTSISTAYMELSGLRSDDTAVYYCASDSFDHWGQGTLVTVSS
VL: QSVLTQPPSASGTPGQRATISCSGSGSNIGRNAVNWFQQLPGAAPKLLIYSNIHRPSGVPDRISGSKSGTSATLAISGLQSEDEADYYCATWDDSLNDYVFGTGTKLTVL
notes: phage scFv
binding result [1]: binds
binding result [2]: binds

B18: N1wc132 (scFv, V domains shown)
VH: QVQLVQSGAEVKKPGASVKVSCKASGYNFTGYYLHWVRQAPGQGLEWMGWINPNSGGTDYAQKFQGRVTVTRDTSISTAYMELGGLRSDDTAVYYCVSDSFDHWGRGTLVTVSS
VL: QSVLTQPPSASGTPGQRVTISCSGSSSNIGSNPVNWYQQLPGSAPKLLVYSDDQRPSGVPDRFSGSKSGASASLAISGLQSEDESDYYCAAWDDSQNAVVFGGGTKVTVL
notes: phage scFv
binding result [1]: binds
binding result [2]: binds

B19: hN1S3-108 (scFv, V domains shown)
VH: QVQLVQSGAEVRKPGASVKVSCKASGYTFTDYYLHWVRQAPGLGLEWMGWINPNTGGTDYGQKFQGRVTMTRDTSINTAYMELSSLRSDDTAVYYCARGAYDYVWGSHRYVADAFDIWGQGTTVTVSS
VL: DIVMTQSPSTLSASVGDRVTITCRASQGISSWLAWYQQKPGRAPKVLIYKASTLESGVPSRFSGSGSGTDFTLTISSLQPEDFATYYCQQSYSTPWTFGQGTKLEIK
notes: phage scFv
binding result [1]: binds
binding result [2]: binds

B20: N1wc164 (scFv, V domains shown)
VH: QVQLVQSGADVKKPGASVKISCKASGYTFTKYYMHWVRQAPGQGLEWMGIINPTNGYTSYAQKFQGRVTMTSDTSASTVSMELSSLRSEDTAVYYCTRSYSNYDSFDIWGRGTMVTVSS
VL: QAVLTQPSSVSGAPGQRITISCTGTSSNIGAGYDVEWYQHLPGTAPKLLIYRNSNRPSGVPDRFSASKSGTSASLVITGLQAEDEADYYCQSYDTRLSDSVIFGGGTKLTVL
notes: phage scFv
binding result [1]: binds
binding result [2]: binds
